Measurements from patent US11498974 (BIOARCTIC, dated 2022).

Columns and labels:
[1] = biological target: recombinant transferrin receptor protein (Sinobiological) (UniProt Q62351); test: competition ELISA on coated recombinant TfR; competitor 2.5 nM biotinylated scFv8D3
Aβ protofibrils = Aβ protofibrils (UniProt P05067); test: inhibition ELISA; reference: Aβ monomers
[2] = biological target: recombinant transferrin receptor protein (Sinobiological) (UniProt Q62351); test: competition TfR ELISA; references: 8D3 and 8D3-F(ab′)2-h158
[3] = biological target: recombinant transferrin receptor protein (Sinobiological) (UniProt Q62351); test: TfR competition ELISA, FIG. 2D; reference: RmAb158-scFv8D3
[4] = biological target: recombinant transferrin receptor protein (Sinobiological) (UniProt Q62351); test: competition TfR ELISA; reference: RmAb158-scFv8D3
[5] = biological target: T1, recombinant transferrin receptor protein (Sinobiological) (UniProt Q62351 89-763, limits assumed); test: TfR competition ELISA, FIG. 2D; reference: RmAb158-scFv8D3
T1 construct: Construct limits are unknown; also called TfR; recombinant TfR protein

[6] = biological target: T1, recombinant transferrin receptor …; test: competition ELISA on coated recombinant TfR; competitor 2.5 nM biotinylated scFv8D3

Chain of recombinant transferrin receptor protein (Sinobiological) (UniProt Q62351) (Q62351 89-763 limits assumed): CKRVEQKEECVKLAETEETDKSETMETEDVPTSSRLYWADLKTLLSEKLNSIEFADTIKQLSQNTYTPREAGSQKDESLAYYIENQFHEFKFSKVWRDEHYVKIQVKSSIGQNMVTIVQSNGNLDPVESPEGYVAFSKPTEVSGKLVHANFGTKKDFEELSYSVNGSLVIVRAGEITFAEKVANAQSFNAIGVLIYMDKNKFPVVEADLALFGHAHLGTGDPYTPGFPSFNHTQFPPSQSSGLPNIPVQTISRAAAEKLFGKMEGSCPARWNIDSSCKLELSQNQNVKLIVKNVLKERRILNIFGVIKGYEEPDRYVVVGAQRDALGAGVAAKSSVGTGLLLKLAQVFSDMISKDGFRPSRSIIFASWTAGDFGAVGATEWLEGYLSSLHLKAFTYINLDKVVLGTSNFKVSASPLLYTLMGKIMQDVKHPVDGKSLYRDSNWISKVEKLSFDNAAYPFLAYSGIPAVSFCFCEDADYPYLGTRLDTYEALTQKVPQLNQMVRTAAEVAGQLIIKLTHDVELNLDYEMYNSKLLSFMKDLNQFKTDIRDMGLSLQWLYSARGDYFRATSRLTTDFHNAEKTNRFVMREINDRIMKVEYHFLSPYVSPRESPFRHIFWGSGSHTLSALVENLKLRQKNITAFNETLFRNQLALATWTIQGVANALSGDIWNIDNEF
T1 sequence (Q62351 89-763 limits assumed): as above

Q: Which Kd [1] does the source give for RmAb158-scFv8D3 (bispecific antibody) here?
A: Its Kd is 8 nM.

Q: What about the fold stronger binding to protofibrils than to monomers (Aβ protofibrils) of the same molecule?
A: The fold stronger binding to protofibrils than to monomers was 500 fold.

Q: And the fold lower avidity [2]?
A: Its fold lower avidity is 10 fold.

Q: “chemically conjugated fusion protein 8D3-F(ab′)2-h158 (bispecific antibody)” was tested. Which Kd [1] did it give?
A: Its Kd is 0.69 nM.

Q: What about the fold stronger binding [3] of the same molecule?
A: The fold stronger binding was 10 fold.

Q: scFv8D3 was tested. Which Kd [1] did it give?
A: The Kd was 15 nM.

Q: What about the fold higher Kd [4] of the same molecule?
A: The fold higher Kd was 2 fold.

B1: anti-TfR antibody 8D3 (antibody, V domains shown)
VH: EVQLVESGGGLVQPGNSLTLSCVASGFTFSNYGMHWIRQAPKKGLEWIAMIYYDSSKMNYADTVKGRFTISRDNSKNTLYLEMNSLRSEDTAMYYCAVPTSHYVVDVWGQGVSVTVSS
VL: DIQMTQSPASLSASLEEIVTITCQASQDIGNWLAWYQQKPGKSPQLLIYGATSLADGVPSRFSGSRSGTQFSLKISRVQVEDIGIYYCLQAYNTPWTFGGGTKLELK
Q: Which results are given for B1?
A: fold stronger binding [5]: ~10 fold; Kd [6]: 0.8 nM
